# Numbering of substitutions follows the chain as printed.
# B1: antibody 3N20 (antibody, V domains shown)
# VH: QVQLQESGAELARPGASVKLSCKVSGYIFTNYGISWVKQRTGQGLEWIGEIYPRSGNTYYNEKFKGKATLTADMSSSTAYMDLRSLTSEDSAVYFCARHWDGVLDYFDYWGQGTSLTVSS
# VL: DIVMTQSPSSLSVSAGEKVTMSCKSSQSLLNSGNQKNYLAWYQQKPGQPPKLLIYGASTRESGVPDRFTGSGSGTDFTLTISSVQAEDLAVYYCLNDHSYPFTFGAGTKLELK
# notes: Murine monoclonal antibody
# B2: antibody 1C17 (antibody, V domains shown)
# VH: QVQLQESGPGLVKPSQSLSLTCSVTGYSITSGYYWNWIRQFPGNKLEWMGYINYDGNSNYTPSLKNRISITRDTSKNQFFLKLNSVTPEDTATYYCARKGAYYSNYDSFDVWGTGTTVTVSS
# VL: DIKMTQSPSSMYASLGERVTITCKASQDINSYLSWVQQKPGKSPKTLIYRANRLVDGVPSRFSGSGSGQDYSLTISSLEYEDMGIYYCLQYDEFPFTFGSGTKLEIK
# notes: Murine monoclonal antibody
# B3: antibody 5F7 (antibody, V domains shown)
# VH: QVQPQESGPELVKPGALVKISCKASGYTFTRYDINWVKQRPGQGLEWIGWIYPGDISTKYNEKFKGKATLTADKSSSTAYMQLNSLTSENSAVYFCARSDYYGSRSFVYWGQGTLVTVSA
# VL: DIVLTQSPASLAVSLGQRATISCRASKSVSTSGYSYMHWYQQKPGQPPKLLIYLASNLESGVPARFSGSGSGTDFTLNIHPVEEEDAATYYCQHSRELPYTFGGGTKVEIK
# notes: Murine monoclonal antibody
# B4: antibody 5H23 (antibody, V domains shown)
# VH: B3 VH with P4L, E6Q, R31S, I56G, S77R, N84S, V108A
# VL: B3 VL with S35V, Y40N, N57Y, T89I, E97D, P99T, Y100F, T101P, V108L
# notes: Murine monoclonal antibody from hybridoma; also called 5H23-Alexa647 (labelled form)
# B5: antibody 4P5 (antibody, V domains shown)
# VH: B3 VH with P4L, E6Q, Q39K, I56D, N84S
# VL: B3 VL with V3L, S69R, Q93H, R96G, V108L
# notes: Murine monoclonal antibody
# B6: antibody 2L12 (antibody, V domains shown)
# VH: B3 VH with P4L, E6Q, Q39K, I56D, N84S
# VL: B3 VL with A12P, M37L, R96G, V108L
# notes: Murine monoclonal antibody
# B7: antibody 5C23 (antibody, V domains shown)
# VH: B3 VH with Q39K, I56G, K65E, N84S
# VL: B3 VL with A9D, A12T, V108L
# notes: Murine monoclonal antibody
# B8: antibody 1D19 (antibody, V domains shown)
# VH: B3 VH with V37M, I56S, Y60F, K63N, G66D, N84S, A92T, V108T
# VL: B3 VL with V108L
# notes: Murine monoclonal antibody
# B9: antibody 3L3 (antibody, V domains shown)
# VH: B3 VH with A16T, R31S, I56G, T58P, N61D, N84S
# VL: B3 VL with M37V, S69R, R96G, V108L
# notes: Murine monoclonal antibody
# Biological target: T1, human beta klotho expressed on cells (human, UniProt Q86Z14 1-1044)
# T1 construct: also called HuKLB overexpressing cells; Human KLB
# T1 sequence: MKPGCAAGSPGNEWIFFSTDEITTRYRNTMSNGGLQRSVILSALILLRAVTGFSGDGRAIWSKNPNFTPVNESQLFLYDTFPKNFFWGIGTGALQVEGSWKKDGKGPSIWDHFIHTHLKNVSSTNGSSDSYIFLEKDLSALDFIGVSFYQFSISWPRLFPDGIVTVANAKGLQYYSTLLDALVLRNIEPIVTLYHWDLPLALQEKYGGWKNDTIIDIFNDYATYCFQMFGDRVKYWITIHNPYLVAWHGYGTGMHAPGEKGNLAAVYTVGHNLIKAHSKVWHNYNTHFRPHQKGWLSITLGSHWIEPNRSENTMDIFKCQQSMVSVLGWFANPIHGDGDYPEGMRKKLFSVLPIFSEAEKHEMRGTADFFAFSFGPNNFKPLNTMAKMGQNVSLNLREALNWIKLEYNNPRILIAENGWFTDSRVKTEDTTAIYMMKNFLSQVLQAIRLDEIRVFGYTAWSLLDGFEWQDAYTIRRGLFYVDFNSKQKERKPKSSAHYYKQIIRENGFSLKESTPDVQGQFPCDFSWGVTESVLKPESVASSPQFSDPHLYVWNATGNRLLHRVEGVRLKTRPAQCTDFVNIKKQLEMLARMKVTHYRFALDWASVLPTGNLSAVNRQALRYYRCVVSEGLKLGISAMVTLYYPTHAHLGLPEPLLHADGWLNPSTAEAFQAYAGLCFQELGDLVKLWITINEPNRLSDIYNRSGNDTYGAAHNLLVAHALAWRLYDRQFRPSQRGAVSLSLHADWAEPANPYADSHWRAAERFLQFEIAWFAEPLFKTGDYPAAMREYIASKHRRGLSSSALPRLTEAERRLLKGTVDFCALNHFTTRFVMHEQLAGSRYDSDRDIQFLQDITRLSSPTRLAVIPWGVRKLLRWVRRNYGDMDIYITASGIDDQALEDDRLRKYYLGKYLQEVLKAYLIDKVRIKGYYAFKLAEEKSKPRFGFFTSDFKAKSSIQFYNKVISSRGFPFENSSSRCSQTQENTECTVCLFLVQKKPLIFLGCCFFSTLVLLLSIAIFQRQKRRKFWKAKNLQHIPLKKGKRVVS
# Experiment: FACS competition on HuKLB-overexpressing cells; row antibody unlabelled; competitor 3I13-Alexa488 (labelled, EC10); MFI of the label
# Description: (§1) For example, for competition binding assays by FACS analysis, antibody standards were prepared that were conjugated to a fluorochrome using either A488 or A647 antibody labeling kit (Invitrogen) following manufacturer's instructions. A dose titration of the conjugated antibody standard was evaluated using HuKLB overexpressing cells. The plateau of the maximal signal of antibody binding is EC=100 and the background signal is EC=0. Competition by FACS against the fluorochrome labeled antibody was performed by pre-incubating HuKLB overexpressing cells with hybridoma supernatants for 15 minutes at room temperature. Without washing, an EC=10 concentration of A488 or A647 labelled antibody standard was added. EC=10 for an individual antibody was determined by 10% of signal using the maximum signal as (100%) and background signal as (0%). After 30 minutes at 4° C., cells are washed and analyzed by FACS. […] A partial competing antibody is one sample that show signal between labelled antibody alone and background. Antibodies that show complete competition against the same standard antibody are considered to be in the same bin.
# (§2) Representative results are shown in Table 12 below reported as mean fluorescence intensity (MFI).
row,Binder,Mean Florescence Intensity (MFI)
1,B1,30.5
2,B2,26.7
3,B3,28.5
4,B4,29.8
5,B5,30.1
6,B6,30.9
7,B7,29.3
8,B8,30.6
9,B9,28.7

# Biological target: T2, human beta klotho / human FGFR1c receptor complex on cells (human, UniProt Q86Z14 1-1044; P11362 22-822)
# Experiment: cell-based or functional assay
row,Binder,"hAdip pERK assay EC50, Experiment - B [nM]"
1,B1,> 67
2,B2,> 67
3,B3,> 67
4,B4,1.66
5,B5,0.89
6,B6,1.23
7,B7,> 67
8,B8,> 67
9,B9,~30

# Biological target: T1, human beta klotho expressed on cells
# Experiment: FACS competition on HuKLB-overexpressing cells; row antibody unlabelled; competitor 5H23-Alexa647 (labelled, EC10); MFI of the label
# Description: as §1, §2
row,Binder,Mean Florescence Intensity (MFI)
1,B1,2.4
2,B2,2.4
3,B3,2.3
4,B4,2.3
5,B5,2.4
6,B6,3.1
7,B7,2.4
8,B8,2.5
9,B9,4.2

# Biological target: T2, human beta klotho / human FGFR1c …
# Experiment: cell-based or functional assay
# Remark: another data set of the same source
# Target sequence in this assay (P11362 22-822 limits assumed, one chain of several): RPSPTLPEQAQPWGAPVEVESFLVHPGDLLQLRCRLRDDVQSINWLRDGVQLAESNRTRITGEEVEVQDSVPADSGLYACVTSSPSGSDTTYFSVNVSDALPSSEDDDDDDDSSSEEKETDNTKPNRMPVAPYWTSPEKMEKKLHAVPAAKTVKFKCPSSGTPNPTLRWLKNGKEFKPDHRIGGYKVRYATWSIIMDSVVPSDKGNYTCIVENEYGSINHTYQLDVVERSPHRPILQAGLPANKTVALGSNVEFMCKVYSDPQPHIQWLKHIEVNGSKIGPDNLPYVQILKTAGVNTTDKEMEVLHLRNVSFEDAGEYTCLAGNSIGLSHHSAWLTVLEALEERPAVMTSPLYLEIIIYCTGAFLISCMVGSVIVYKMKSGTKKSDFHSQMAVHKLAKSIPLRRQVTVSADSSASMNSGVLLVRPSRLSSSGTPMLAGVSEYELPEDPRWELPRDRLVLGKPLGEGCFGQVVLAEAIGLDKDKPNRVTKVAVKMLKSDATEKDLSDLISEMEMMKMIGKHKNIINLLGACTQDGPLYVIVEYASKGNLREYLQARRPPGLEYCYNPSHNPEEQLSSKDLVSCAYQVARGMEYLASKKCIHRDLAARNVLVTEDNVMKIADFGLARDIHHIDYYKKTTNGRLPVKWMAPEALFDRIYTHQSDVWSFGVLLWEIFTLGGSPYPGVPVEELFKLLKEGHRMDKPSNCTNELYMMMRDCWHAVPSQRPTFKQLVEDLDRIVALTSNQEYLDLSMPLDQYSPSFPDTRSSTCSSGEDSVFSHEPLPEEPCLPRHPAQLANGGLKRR
row,Binder,L6 huKLB/R1c reporter assay EC50 [nM]
1,B4,0.28
2,B5,0.39
3,B6,4.65

# Biological target: human beta klotho / human FGFR4 on L6 cells (human, UniProt Q86Z14 1-1044; P22455 22-802)
# Experiment: cell-based or functional assay
# human beta klotho / human FGFR4 on L6 cells, sequence (P22455 22-802, one chain of several): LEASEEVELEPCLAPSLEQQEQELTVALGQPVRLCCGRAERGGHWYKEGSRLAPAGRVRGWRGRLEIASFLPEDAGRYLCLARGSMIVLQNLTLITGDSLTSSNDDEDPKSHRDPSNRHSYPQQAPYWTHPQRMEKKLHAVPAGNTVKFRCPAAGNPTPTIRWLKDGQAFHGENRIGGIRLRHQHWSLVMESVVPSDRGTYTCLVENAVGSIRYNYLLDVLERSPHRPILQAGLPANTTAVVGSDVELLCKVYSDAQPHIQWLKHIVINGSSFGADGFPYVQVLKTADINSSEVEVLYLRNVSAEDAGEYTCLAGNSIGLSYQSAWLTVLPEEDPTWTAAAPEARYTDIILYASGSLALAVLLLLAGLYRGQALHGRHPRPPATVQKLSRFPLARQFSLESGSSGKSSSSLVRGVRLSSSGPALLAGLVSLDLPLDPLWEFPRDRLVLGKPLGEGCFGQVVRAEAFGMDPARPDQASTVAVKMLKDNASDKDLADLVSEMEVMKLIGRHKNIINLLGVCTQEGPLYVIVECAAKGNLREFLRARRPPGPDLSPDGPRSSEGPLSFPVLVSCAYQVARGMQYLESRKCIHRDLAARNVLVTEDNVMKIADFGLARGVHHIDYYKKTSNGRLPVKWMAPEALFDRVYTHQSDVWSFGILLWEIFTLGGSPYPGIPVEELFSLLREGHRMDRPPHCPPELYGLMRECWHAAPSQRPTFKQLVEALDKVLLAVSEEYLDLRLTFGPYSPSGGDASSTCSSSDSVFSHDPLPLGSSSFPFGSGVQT
row,Binder,L6 huKLB/R4 reporter assay EC50 [nM]
1,B4,> 67
2,B5,> 67
3,B6,> 67

# Biological target: human beta klotho / human FGFR3c on L6 cells (human, UniProt Q86Z14 1-1044; P22607 23-806)
# Experiment: cell-based or functional assay
# human beta klotho / human FGFR3c on L6 cells, sequence (P22607 23-806, one chain of several): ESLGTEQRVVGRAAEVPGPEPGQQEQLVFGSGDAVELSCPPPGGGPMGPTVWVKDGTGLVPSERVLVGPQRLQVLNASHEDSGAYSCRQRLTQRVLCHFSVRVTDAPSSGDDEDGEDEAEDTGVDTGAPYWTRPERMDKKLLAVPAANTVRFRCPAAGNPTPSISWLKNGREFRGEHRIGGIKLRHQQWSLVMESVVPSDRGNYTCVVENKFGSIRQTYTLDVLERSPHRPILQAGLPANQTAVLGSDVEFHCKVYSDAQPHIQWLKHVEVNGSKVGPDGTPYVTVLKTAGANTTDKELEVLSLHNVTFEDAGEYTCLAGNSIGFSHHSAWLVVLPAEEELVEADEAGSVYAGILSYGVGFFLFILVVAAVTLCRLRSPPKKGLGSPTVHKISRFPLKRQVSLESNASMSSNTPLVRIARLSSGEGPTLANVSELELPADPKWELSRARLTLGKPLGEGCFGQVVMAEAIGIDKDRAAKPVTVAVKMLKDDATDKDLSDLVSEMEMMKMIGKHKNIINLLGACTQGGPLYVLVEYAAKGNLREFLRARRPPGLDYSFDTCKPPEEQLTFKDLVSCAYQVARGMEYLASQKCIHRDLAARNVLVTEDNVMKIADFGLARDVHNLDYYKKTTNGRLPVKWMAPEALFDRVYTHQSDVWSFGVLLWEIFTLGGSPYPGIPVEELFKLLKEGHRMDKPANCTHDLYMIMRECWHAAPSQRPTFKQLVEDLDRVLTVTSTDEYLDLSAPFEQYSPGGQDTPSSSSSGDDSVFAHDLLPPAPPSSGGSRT
row,Binder,L6 huKLB/R3c reporter assay EC50 [nM]
1,B4,> 67
2,B5,> 67
3,B6,> 67

# Biological target: cynomolgus beta klotho / human FGFR1c receptor complex on cells (cynomolgus monkey (Macaca …))
# Experiment: cell-based or functional assay
# cynomolgus beta klotho / human FGFR1c receptor complex on cells (cynomolgus monkey (Macaca …)), sequence (chain, as listed by the source limits assumed, chain 1 of 2): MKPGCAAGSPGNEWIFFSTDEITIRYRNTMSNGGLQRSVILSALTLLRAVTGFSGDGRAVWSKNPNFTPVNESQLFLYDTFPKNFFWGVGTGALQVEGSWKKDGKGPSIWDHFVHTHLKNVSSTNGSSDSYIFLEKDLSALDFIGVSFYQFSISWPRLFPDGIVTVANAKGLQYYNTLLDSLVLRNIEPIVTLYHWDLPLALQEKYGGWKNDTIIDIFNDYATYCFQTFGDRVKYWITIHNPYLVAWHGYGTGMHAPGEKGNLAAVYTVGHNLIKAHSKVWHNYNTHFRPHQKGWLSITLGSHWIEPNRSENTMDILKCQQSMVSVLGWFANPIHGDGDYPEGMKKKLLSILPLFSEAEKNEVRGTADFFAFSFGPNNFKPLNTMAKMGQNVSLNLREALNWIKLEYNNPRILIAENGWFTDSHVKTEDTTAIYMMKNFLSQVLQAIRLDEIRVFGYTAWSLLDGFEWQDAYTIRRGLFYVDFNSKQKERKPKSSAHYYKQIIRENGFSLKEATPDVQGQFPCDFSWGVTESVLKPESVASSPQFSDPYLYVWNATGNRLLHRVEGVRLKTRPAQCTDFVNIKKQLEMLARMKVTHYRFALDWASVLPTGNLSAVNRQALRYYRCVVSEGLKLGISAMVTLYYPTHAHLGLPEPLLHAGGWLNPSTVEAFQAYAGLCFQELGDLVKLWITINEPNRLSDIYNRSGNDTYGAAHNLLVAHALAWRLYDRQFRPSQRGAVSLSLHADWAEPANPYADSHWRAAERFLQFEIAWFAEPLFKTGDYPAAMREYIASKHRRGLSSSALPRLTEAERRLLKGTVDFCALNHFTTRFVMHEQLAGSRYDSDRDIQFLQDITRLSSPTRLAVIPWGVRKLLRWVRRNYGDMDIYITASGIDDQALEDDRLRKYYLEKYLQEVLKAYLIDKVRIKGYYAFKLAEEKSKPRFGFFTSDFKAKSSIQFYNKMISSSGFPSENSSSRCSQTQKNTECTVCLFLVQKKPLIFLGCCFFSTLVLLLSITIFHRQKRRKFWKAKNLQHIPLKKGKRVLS
# cynomolgus beta klotho / human FGFR1c receptor complex on cells (cynomolgus monkey (Macaca …)), sequence (chain, as listed by the source limits assumed, chain 2 of 2): as the sequence (P11362 22-822 limits assumed, one chain of several) above
Binder,"HEK293 cynoKLB/R1c reporter assay EC50, Experiment - A [pM]","HEK293 cynoKLB/R1c reporter assay EC50, Experiment - B [pM]"
B1,2460,> 10000
B4,165,218
B5,347,465
B6,260,410
B8,,954
B9,3580,1670
